The assay concerns the target endogenous Xenopus type 1 inositol 1,4,5-trisphosphate receptor (Xenopus laevis (endogenous in oocytes)) (UniProt Q91908). Put plainly: co-IP.

recombinant rat type 3 inositol 1,4,5-trisphosphate receptor, Q63269 1-2670, sequence (Q63269 whole entry): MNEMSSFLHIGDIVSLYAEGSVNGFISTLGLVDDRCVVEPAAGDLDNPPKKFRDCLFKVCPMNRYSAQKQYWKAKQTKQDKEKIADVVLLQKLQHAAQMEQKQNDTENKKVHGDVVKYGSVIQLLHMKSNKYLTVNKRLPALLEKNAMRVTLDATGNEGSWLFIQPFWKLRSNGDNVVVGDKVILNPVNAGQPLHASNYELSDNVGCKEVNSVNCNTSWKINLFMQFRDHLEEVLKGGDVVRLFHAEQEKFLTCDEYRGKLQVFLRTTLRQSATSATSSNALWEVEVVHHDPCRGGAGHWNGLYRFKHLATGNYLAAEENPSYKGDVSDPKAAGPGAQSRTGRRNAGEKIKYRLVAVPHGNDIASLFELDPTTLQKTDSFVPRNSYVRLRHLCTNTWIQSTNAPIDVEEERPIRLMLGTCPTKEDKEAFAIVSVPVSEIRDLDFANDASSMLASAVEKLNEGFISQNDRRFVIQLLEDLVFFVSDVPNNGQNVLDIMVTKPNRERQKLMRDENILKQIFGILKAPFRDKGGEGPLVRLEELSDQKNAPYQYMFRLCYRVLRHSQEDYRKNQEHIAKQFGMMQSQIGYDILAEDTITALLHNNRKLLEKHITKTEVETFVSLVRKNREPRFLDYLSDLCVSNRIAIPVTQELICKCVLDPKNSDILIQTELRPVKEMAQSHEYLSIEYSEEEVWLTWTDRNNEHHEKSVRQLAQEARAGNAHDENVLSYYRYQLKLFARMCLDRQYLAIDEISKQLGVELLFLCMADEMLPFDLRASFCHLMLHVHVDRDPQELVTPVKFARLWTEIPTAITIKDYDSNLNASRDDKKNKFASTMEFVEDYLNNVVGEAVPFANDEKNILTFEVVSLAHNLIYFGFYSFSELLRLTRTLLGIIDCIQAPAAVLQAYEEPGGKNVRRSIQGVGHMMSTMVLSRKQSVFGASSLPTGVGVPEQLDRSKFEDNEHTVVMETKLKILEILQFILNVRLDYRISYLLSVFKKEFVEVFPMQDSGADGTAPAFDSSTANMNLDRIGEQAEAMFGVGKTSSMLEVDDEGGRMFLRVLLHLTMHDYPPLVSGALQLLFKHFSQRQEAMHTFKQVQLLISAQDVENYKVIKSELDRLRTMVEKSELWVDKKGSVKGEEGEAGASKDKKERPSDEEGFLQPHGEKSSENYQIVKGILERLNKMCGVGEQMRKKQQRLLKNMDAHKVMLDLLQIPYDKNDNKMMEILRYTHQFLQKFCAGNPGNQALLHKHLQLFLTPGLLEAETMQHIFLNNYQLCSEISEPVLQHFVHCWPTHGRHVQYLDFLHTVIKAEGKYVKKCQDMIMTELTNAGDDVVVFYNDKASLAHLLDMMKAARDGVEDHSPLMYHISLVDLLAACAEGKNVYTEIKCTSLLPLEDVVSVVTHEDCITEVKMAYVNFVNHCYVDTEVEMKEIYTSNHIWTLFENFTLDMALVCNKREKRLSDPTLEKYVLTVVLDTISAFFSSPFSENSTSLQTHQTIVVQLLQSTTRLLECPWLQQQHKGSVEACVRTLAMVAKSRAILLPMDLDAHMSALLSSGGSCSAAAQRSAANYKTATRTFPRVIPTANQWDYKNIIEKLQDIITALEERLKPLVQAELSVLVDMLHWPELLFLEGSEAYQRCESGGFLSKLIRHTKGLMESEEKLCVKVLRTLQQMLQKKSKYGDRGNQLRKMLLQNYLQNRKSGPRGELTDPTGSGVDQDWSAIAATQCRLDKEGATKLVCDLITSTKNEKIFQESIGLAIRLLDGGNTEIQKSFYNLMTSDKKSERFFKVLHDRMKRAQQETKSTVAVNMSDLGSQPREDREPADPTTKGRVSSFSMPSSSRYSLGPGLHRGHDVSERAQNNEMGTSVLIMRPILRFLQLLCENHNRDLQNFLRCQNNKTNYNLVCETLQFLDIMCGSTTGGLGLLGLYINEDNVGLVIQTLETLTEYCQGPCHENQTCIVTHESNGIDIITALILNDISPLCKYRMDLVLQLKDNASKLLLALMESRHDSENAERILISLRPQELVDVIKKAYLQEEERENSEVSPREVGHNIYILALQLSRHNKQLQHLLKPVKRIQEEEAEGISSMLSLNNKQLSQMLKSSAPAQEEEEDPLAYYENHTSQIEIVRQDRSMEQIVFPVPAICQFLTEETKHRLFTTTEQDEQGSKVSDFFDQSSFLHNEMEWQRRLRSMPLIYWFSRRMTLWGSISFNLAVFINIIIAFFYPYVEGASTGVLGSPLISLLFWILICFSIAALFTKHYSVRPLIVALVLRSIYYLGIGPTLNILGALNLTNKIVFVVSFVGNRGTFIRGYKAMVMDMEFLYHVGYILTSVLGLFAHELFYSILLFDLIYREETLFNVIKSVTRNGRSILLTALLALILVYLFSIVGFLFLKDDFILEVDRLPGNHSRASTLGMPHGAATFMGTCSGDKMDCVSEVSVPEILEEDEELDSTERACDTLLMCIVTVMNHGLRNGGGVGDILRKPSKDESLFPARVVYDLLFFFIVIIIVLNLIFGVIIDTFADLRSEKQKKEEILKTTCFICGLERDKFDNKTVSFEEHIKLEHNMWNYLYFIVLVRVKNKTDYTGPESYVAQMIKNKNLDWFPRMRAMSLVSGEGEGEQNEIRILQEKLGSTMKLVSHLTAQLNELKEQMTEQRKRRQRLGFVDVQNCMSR

In turn, “recombinant rat type 3 inositol 1,4,5-trisphosphate receptor, Q63269 1-2670” registered a percent of expressed r-InsP3R-3 in heteroligomers with X-InsP3R-1 of 7 to 10%.
